Target: recombinant gp160 (HIV (IIIB or MN/LAI))
Experiment: SPR
Details: bispecific antibody

HY-[Fx2-Hx4-Fx2]-7B2 (from UniProt P01857)
Ka: 4.6e+10 M⁻¹
Kd: 0.021 nM

HY-[Hx4]-7B2 (from UniProt P01857)
Ka: 1.7e+10 M⁻¹

From paper PMC3464217
